{"source": "paper PMC3757182", "about": "“ATPase Mechanism of the 5′-3′ DNA Helicase, RecD2” (The Journal of Biological Chemistry, 2013)", "molecules": {"B1": {"name": "RecD2 (Deinococcus radiodurans R1 = ATCC 13939 = DSM 20539) (protein)", "chain": "SQQGLERRLLAGLQGLGLTINQAQRAVKHFGADALDRLEKDLFTLTEVEGIGFLTADKLWQARGGALDDPRRLTAAAVYALQLAGTQAGHSFLPRSRAEKGVVHYTRVTPGQARLAVETAVELGRLSEDDSPLFAAEAAATGEGRIYLPHVLRAEKKLASLIRTLLATPPADGAGNDDWAVPKKARKGLSEEQASVLDQLAGHRLVVLTGGPGTGKSTTTKAVADLAESLGLEVGLCAPTGKAARRLGEVTGRTASTVHRLLGYGPQGFRHNHLEPAPYDLLIVDEVSMMGDALMLSLLAAVPPGARVLLVGDTDQLPPVDAGLPLLALAQAAPTIKLTQVYRQAAKNPIIQAAHGLLHGEAPAWGDKRLNLTEIEPDGGARRVALMVRELGGPGAVQVLTPMRKGPLGMDHLNYHLQALFNPGEGGVRIAEGEARPGDTVVQTKNDYNNEIFNGTLGMVLKAEGARLTVDFDGNVVELTGAELFNLQLGYALTVHRAQGSEWGTVLGVLHEAHMPMLSRNLVYTALTRARDRFFSAGSASAWQIAAARQREARNTALLERIRAH", "notes": "N-terminal truncation lacking the first 150 amino acids; recombinant; monomer"}}, "key": {"PcrA [1]": {"molecular_target": "T1, PcrA (Geobacillus stearothermophilus, UniProt P56255)", "T1 construct": "recombinant, prepared as described previously", "T1 sequence (P56255 1-724)": "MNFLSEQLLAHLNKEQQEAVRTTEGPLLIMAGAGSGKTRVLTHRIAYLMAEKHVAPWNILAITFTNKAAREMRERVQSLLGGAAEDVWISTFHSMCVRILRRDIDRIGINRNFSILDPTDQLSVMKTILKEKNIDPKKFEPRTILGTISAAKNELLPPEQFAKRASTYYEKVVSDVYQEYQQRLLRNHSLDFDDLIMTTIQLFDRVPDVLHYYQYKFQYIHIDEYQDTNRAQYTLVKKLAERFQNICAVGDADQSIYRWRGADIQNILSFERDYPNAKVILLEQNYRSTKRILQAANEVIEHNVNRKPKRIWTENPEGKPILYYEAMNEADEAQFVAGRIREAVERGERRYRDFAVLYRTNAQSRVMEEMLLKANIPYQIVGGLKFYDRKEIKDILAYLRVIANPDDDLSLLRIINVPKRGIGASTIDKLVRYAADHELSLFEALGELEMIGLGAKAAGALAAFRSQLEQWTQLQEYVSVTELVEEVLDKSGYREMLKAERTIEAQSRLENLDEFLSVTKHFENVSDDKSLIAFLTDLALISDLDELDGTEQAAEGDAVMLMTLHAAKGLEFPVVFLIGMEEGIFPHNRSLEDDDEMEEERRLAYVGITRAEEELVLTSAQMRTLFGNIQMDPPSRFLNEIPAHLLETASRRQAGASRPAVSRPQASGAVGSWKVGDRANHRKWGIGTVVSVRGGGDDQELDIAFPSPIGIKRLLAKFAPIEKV", "experiment": "stopped-flow fluorescence, koff/kon", "type": "binding"}, "PcrA [2]": {"molecular_target": "T1, PcrA", "experiment": "stopped-flow fluorescence, quench-flow HPLC, Pi release, single turnover", "type": "biochemical", "details": "8 μM PcrA, 10 μM dT20, 2 μM deac-aminoATP; 3 mM MgCl2, pH 7.5; labelled compound"}, "[3]": {"substrate": "CNc1ccccc1C(=O)O[C@H]1C[C@H](n2cnc3c(N)ncnc32)O[C@@H]1COP(=O)(O)OP(=O)(O)OP(=O)(O)O", "experiment": "steady-state ATPase, MDCC-PBP phosphate release", "type": "biochemical, Deinococcus radiodurans", "details": "with 500 nM dT20 ssDNA, 10 mM MgCl2, pH 7.5, 20 °C", "description": "(§1) steady-state ATPase, MDCC-PBP phosphate release on RecD2"}, "[4]": {"substrate": "Nc1ncnc2c1ncn2[C@@H]1O[C@H](COP(=O)(O)OP(=O)(O)OP(=O)(O)O)[C@@H](O)[C@H]1O", "experiment": "steady-state ATPase, MDCC-PBP phosphate release", "type": "biochemical, Deinococcus radiodurans", "details": "with 500 nM dT20 ssDNA, 10 mM MgCl2, pH 7.5, 20 °C", "description": "as §1"}}}
{"molecule": "CCN(CC)c1ccc2cc(C(=O)N[C@H]3[C@@H](O)[C@H](n4cnc5c(N)ncnc54)O[C@@H]3COP(=O)(O)OP(=O)(O)O)c(=O)oc2c1", "note": "[deac-aminoADP]", "values": [{"measurement": "Kd", "setting": "PcrA [1]", "value": 1700, "unit": "nM"}]}
{"molecule": "CCN(CC)c1ccc2cc(C(=O)N[C@H]3[C@@H](O)[C@H](n4cnc5c(N)ncnc54)O[C@@H]3COP(=O)(O)OP(=O)(O)OP(=O)(O)O)c(=O)oc2c1", "note": "[deac-aminoATP, 3′-(7-diethylaminocoumarin-3-carbonylamino)-3′-deoxyadenosine-5′-triphosphate]", "values": [{"measurement": "stopped-flow fluorescence, quench-flow HPLC, Pi release, single turnover", "setting": "PcrA [2]", "value": "After mixing excess PcrA·dT20 with deac-aminoATP, there was a biphasic increase in fluorescence"}]}
{"molecule": "B1", "values": [{"measurement": "Km", "setting": "[3]", "value": "12.1 ± 1.7", "unit": "µM"}, {"measurement": "kcat", "setting": "[3]", "value": "40.2 ± 2.4", "unit": "s⁻¹"}, {"measurement": "Km", "setting": "[4]", "value": "30.3 ± 1.5", "unit": "µM"}, {"measurement": "kcat", "setting": "[4]", "value": "86.9 ± 1.5", "unit": "s⁻¹"}]}
